Literature values, collected in patent publication US20030219387A1, “Local delivery of agents for disruption and inhibition of bacterial biofilm for treatment of periodontal disease” (priority 2000, published 2003).

Test system: binding of cells
Settings: iron-saturated form

B1: Lactoferrin: iron-binding salivary protein (protein, UniProt P02788 20-710, looked up)
Lactotransferrin: GRRRSVQWCAVSQPEATKCFQWQRNMRKVRGPPVSCIKRDSPIQCIQAIAENRADAVTLDGGFIYEAGLAPYKLRPVAAEVYGTERQPRTHYYAVAVVKKGGSFQLNELQGLKSCHTGLRRTAGWNVPIGTLRPFLNWTGPPEPIEAAVARFFSASCVPGADKGQFPNLCRLCAGTGENKCAFSSQEPYFSYSGAFKCLRDGAGDVAFIRESTVFEDLSDEAERDEYELLCPDNTRKPVDKFKDCHLARVPSHAVVARSVNGKEDAIWNLLRQAQEKFGKDKSPKFQLFGSPSGQKDLLFKDSAIGFSRVPPRIDSGLYLGSGYFTAIQNLRKSEEEVAARRARVVWCAVGEQELRKCNQWSGLSEGSVTCSSASTTEDCIALVLKGEADAMSLDGGYVYTAGKCGLVPVLAENYKSQQSSDPDPNCVDRPVEGYLAVAVVRRSDTSLTWNSVKGKKSCHTAVDRTAGWNIPMGLLFNQTGSCKFDEYFSQSCAPGSDPRSNLCALCIGDEQGENKCVPNSNERYYGYTGAFRCLAENAGDVAFVKDVTVLQNTDGNNNEAWAKDLKLADFALLCLDGKRKPVTEARSCHLAMAPNHAVVSRMDKVERLKQVLLHQQAKFGRNGSDCPDKFCLFQSETKNLLFNDNTECLARLHGKTTYEKYLGPQYVAGITNLKKCSTSPLLEACEFLRK
modifications: iron saturated
For B1, the binding of cells is given as “reduce binding of cells”.
